Measurements: paper PMC9947420

Target: GST-tagged PEX5-binding domain of X. laevis PEX14 (amino acids 19-78) (Xenopus laevis)
Assay: SEC; Superdex 200 HiLoad 26/600 PG, XBHS buffer with 1 mM DTT; retention volume between 180 and 190 mL

“GST-tagged PEX5-binding domain of X. laevis PEX14 (amino acids 19-78) (domain or fragment)” was tested. Which stoichiometry N did it give?
The stoichiometry N was 2.
